Assay results published in patent publication US20230374526A1, “FORSKOLIN-INDUCIBLE PROMOTERS AND HYPOXIA-INDUCIBLE PROMOTERS” (ASKLEPIOS BIOPHARMACEUTICAL, INC., priority 2020, published 2023).

test system: HEK293 cells; assay: Luciferase expression from new HRE3 hypoxia-inducible promoter designs, normoxia vs 24 h hypoxia; format: cell-based, human; conditions: HEK293, N=3
Excerpt: Promoters were designed using HRE3 (SEQ ID NO: 9) described above. The promoters were designed around a base enhancer element: • […]gataa[…] GTATGtgcgt[…]gataaACCTTGAGTACGTGCGT CTCTGCACGTATGtgcgt[…]gataaACCTTGAGT […] (SEQ ID NO: 139) • HRE3 is in capital letters
This enhancer was operably linked with the following minimal promoters, with a 5 bp spacer between the enhancer and the minimal promoter: • YB-Tata (HYPN) • Short CMV (HYBNC) • CMV53 (HYBNC53) • MinTK (HYBNMinTK) • 30 MLP (HYBNMLP) • SV40 (HYBNSV) • pJB42 (HYBNpJB42)
This enhancer was also operably liked with another minimal promoter named TATA-m6A (HYBNTATAm6a): • […]aagcttggactaaagcggacttgtctcgag (SEQ ID NO: 101)
These new designs were transfected in HEK293 cells as described above and the results of their expression in hypoxia and normoxia are shown in FIG. 15.

Row | Molecule | Luciferase activity in normoxia | Luciferase expression after 24 hours in hypoxia (vs normoxia)
1 | HYBN-SV: hypoxia-inducible promoter, SEQ ID NO: 145; 6 HRE3 elements, SV40 (nucleic acid, Synp-HYBNSV, 6 HRE3 elements, SV40) DNA: AATAAAATATCTTTATTTTCATTACATCTGTGTGTTGGTTTTTTGTGTGACCTTGAGTACGTGCGTCTCTGCACGTATGGATAAACCTTGAGTACGTGCGTCTCTGCACGTATGTGCGTACCTTGAGTACGTGCGTCTCTGCACGTATGGATAAACCTTGAGTACGTGCGTCTCTGCACGTATGTGCGTACCTTGAGTACGTGCGTCTCTGCACGTATGGATAAACCTTGAGTACGTGCGTCTCTGCACGTATGTGCATCTCAATTAGTCAGCAACCATAGTCCCGCCCCTAACTCCGCCCATCCCGCCCCTAACTCCGCCCAGTTCCGCCCATTCTCCGCCCCATCGCTGACTAATTTTTTTTATTTATGCAGAGGCCGAGGCCGCCTCGGCCTCTGAGCTATTCCAGAAGTAGTGAGGAGGCTTTTTTGGAGGCCTAGGCTTTTGCAAAAAGCTT | almost no luciferase activity | induced
2 | HYBN-YB: hypoxia-inducible promoter, SEQ ID NO: 140; 6 HRE3 elements spaced by 5 bp spacers, YB-TATA (nucleic acid, Synp-HYPN, 6 HRE3 elements spaced by 5 bp spacers, YB-TATA) DNA: AATAAAATATCTTTATTTTCATTACATCTGTGTGTTGGTTTTTTGTGTGACCTTGAGTACGTGCGTCTCTGCACGTATGGATAAACCTTGAGTACGTGCGTCTCTGCACGTATGTGCGTACCTTGAGTACGTGCGTCTCTGCACGTATGGATAAACCTTGAGTACGTGCGTCTCTGCACGTATGTGCGTACCTTGAGTACGTGCGTCTCTGCACGTATGGATAAACCTTGAGTACGTGCGTCTCTGCACGTATGTCTAGAGGGTATATAATGGGGGCCA | almost no luciferase activity | induced
3 | HYBN-TATAm6a: hypoxia-inducible promoter, SEQ ID NO: 147; 6 HRE3 elements, TATAm6a (nucleic acid, Synp-HYBNTATAm6a, 6 HRE3 elements, TATAm6a) DNA: AATAAAATATCTTTATTTTCATTACATCTGTGTGTTGGTTTTTTGTGTGACCTTGAGTACGTGCGTCTCTGCACGTATGGATAAACCTTGAGTACGTGCGTCTCTGCACGTATGTGCGTACCTTGAGTACGTGCGTCTCTGCACGTATGGATAAACCTTGAGTACGTGCGTCTCTGCACGTATGTGCGTACCTTGAGTACGTGCGTCTCTGCACGTATGGATAAACCTTGAGTACGTGCGTCTCTGCACGTATGTATAAAAGGCAGAGCTCGTTTAGTGAACCGAAGCTTGGACTAAAGCGGACTTGTCTCGAG | almost no luciferase activity | induced
4 | HYBN-C: hypoxia-inducible promoter, SEQ ID NO: 141; 6 HRE3 elements, CMV-MP short (nucleic acid, Synp-HYBNC, 6 HRE3 elements, CMV-MP short) DNA: AATAAAATATCTTTATTTTCATTACATCTGTGTGTTGGTTTTTTGTGTGACCTTGAGTACGTGCGTCTCTGCACGTATGGATAAACCTTGAGTACGTGCGTCTCTGCACGTATGTGCGTACCTTGAGTACGTGCGTCTCTGCACGTATGGATAAACCTTGAGTACGTGCGTCTCTGCACGTATGTGCGTACCTTGAGTACGTGCGTCTCTGCACGTATGGATAAACCTTGAGTACGTGCGTCTCTGCACGTATGGCGATTAATCCATATGCGTAGGCGTGTACGGTGGGAGGTCTATATAAGCAGAGCT | almost no luciferase activity | induced
5 | HYBN-pJB42: hypoxia-inducible promoter, SEQ ID NO: 146; 6 HRE3 elements, pJB42 (nucleic acid, Synp-HYBNpJB42, 6 HRE3 elements, pJB42) DNA: AATAAAATATCTTTATTTTCATTACATCTGTGTGTTGGTTTTTTGTGTGACCTTGAGTACGTGCGTCTCTGCACGTATGGATAAACCTTGAGTACGTGCGTCTCTGCACGTATGTGCGTACCTTGAGTACGTGCGTCTCTGCACGTATGGATAAACCTTGAGTACGTGCGTCTCTGCACGTATGTGCGTACCTTGAGTACGTGCGTCTCTGCACGTATGGATAAACCTTGAGTACGTGCGTCTCTGCACGTATGCTGACAAATTCAGTATAAAAGCTTGGGGCTGGGGCCGAGCACTGGGGACTTTGAGGGTGGCCAGGCCAGCGTAGGAGGCCAGCGTAGGATCCTGCTGGGAGCGGGGAACTGAGGGAAGCGACGCCGAGAAAGCAGGCGTACCACGGAGGGAGAGAAAAGCTCCGGAAGCCCAGCAGCG | almost no luciferase activity | induced
6 | HYBN-minTk: hypoxia-inducible promoter, SEQ ID NO: 143; 6 HRE3 elements, MinTK (nucleic acid, Synp-HYBNMinTK, 6 HRE3 elements, MinTK) DNA: AATAAAATATCTTTATTTTCATTACATCTGTGTGTTGGTTTTTTGTGTGACCTTGAGTACGTGCGTCTCTGCACGTATGGATAAACCTTGAGTACGTGCGTCTCTGCACGTATGTGCGTACCTTGAGTACGTGCGTCTCTGCACGTATGGATAAACCTTGAGTACGTGCGTCTCTGCACGTATGTGCGTACCTTGAGTACGTGCGTCTCTGCACGTATGGATAAACCTTGAGTACGTGCGTCTCTGCACGTATGTTCGCATATTAAGGTGACGCGTGTGGCCTCGAACACCGAGCGACCCTGCAGCGACCCGCTTAA | almost no luciferase activity | induced
7 | HYBN-MLP: hypoxia-inducible promoter, SEQ ID NO: 144; 6 HRE3 elements, MLP (nucleic acid, Synp- HYBNMLP, 6 HRE3 elements, MLP) DNA: AATAAAATATCTTTATTTTCATTACATCTGTGTGTTGGTTTTTTGTGTGACCTTGAGTACGTGCGTCTCTGCACGTATGGATAAACCTTGAGTACGTGCGTCTCTGCACGTATGTGCGTACCTTGAGTACGTGCGTCTCTGCACGTATGGATAAACCTTGAGTACGTGCGTCTCTGCACGTATGTGCGTACCTTGAGTACGTGCGTCTCTGCACGTATGGATAAACCTTGAGTACGTGCGTCTCTGCACGTATGGGGGGGCTATAAAAGGGGGTGGGGGCGTTCGTCCTCACTCT | almost no luciferase activity | induced
8 | HYBN-C53: hypoxia-inducible promoter, SEQ ID NO: 142; 6 HRE3 elements, CMV53 (nucleic acid, Synp-HYBNC53, 6 HRE3 elements, CMV53) DNA: AATAAAATATCTTTATTTTCATTACATCTGTGTGTTGGTTTTTTGTGTGACCTTGAGTACGTGCGTCTCTGCACGTATGGATAAACCTTGAGTACGTGCGTCTCTGCACGTATGTGCGTACCTTGAGTACGTGCGTCTCTGCACGTATGGATAAACCTTGAGTACGTGCGTCTCTGCACGTATGTGCGTACCTTGAGTACGTGCGTCTCTGCACGTATGGATAAACCTTGAGTACGTGCGTCTCTGCACGTATGCAACAAAATGTCGTAACAAGGGCGGTAGGCGTGTACGGTGGGAGGTCTATATAAGCAGAGCTCGTTTAGTGAACCG | almost no luciferase activity | induced
